Experimental data from the supplement of paper PMC11136658.

Tested on: peptide library, one residue held at a place counted from the Y acceptor
Test: relative phosphorylation of the sub-library (ratio to the mean residue at this position); higher = residue favoured
Summary of the method: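 Purified recombinant kinases were given 50 μM ATP with γ-32P-ATP and biotinylated Tyr-centred peptide library mixtures for 90 min in 384-well plates. Peptides bound to streptavidin membranes were rinsed and quantified by phosphorimaging, and intensities were normalized per position by the sum of the 18 randomized residues (16 with the Ser/Thr-free library) and multiplied by that number. The reported values are phosphorylation relative to the mean randomized residue.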

PTK2B, construct: aa360-690, human, sequence (Q14289 360-690, looked up): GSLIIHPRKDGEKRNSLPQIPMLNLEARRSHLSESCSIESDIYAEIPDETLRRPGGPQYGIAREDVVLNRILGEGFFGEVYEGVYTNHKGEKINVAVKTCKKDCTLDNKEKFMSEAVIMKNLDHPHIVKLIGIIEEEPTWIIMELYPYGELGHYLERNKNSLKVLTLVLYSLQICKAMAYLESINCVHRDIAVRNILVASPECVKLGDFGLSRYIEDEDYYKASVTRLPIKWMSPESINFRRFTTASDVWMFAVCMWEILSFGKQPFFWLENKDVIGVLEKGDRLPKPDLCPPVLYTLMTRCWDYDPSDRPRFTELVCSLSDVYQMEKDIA

PTK2B, construct: aa360-690, human (from UniProt Q14289)
relative phosphorylation
Conditions	at +1	at +2	at +3	at +4	at +5	at -1	at -2	at -3	at -4	at -5
A fixed	2.28	0.739	0.756	0.904	1.08	0.722	1.03	1.03	1.15	1.03
D fixed	1.55	0.792	0.312	0.86	0.799	0.478	1.34	1.28	0.976	0.952
E fixed	2.04	1.29	0.341	0.961	0.887	0.489	1.54	1.52	0.85	0.801
F fixed	0.834	1.85	1.42	1.04	0.992	1.06	0.634	0.986	1.29	1.07
G fixed	1.1	0.402	0.58	1.02	1.31	0.297	1.06	1.07	1.23	1.14
H fixed	0.593	0.657	0.685	1.05	0.966	0.719	0.953	0.965	1.01	1.05
I fixed	1.12	1.56	2.46	0.896	0.903	4.36	1.02	0.657	0.851	0.978
K fixed	0.171	0.444	0.228	0.762	0.731	0.29	0.703	0.866	0.915	1.13
L fixed	0.499	1.68	1.61	0.925	0.92	1.99	1.02	0.816	1.07	1.04
M fixed	0.908	1.13	1.11	1.15	1	0.811	0.729	0.903	0.939	1.08
N fixed	0.297	0.815	0.397	0.711	0.838	0.63	1.13	1.18	0.937	1.02
P fixed	0.374	0.702	2.31	1.08	1.72	0.488	1.15	0.97	1.14	1.01
Q fixed	0.788	0.679	0.365	0.992	0.758	0.443	1.09	0.895	0.918	0.896
R fixed	0.215	0.603	0.298	0.938	0.912	0.374	0.748	0.923	0.969	1.16
S fixed	1.15	0.82	0.669	0.981	1.1	0.534	1.08	1.27	0.927	0.98
T fixed	1.02	0.823	0.794	0.875	1.09	0.935	0.962	1.02	0.679	0.825
V fixed	2.02	1.27	2.28	1.09	0.926	2.67	1.2	0.704	0.86	0.926
W fixed	1.04	1.75	1.4	1.77	1.07	0.714	0.613	0.95	1.3	0.917
pThr fixed	3.7	2.29	0.44	0.84	0.752	0.624	1.09	0.878	0.728	0.817
pTyr fixed	2.13	6.16	0.885	1.48	0.901	1.53	1.17	1.32	0.964	0.94

PTK6, construct: Full length, human (from UniProt Q13882)
relative phosphorylation
Conditions	at +1	at +2	at +3	at +4	at +5	at -1	at -2	at -3	at -4	at -5
A fixed	0.945	0.766	0.805	0.972	0.852	0.665	0.982	0.951	1.08	1.03
D fixed	0.404	0.528	1.01	0.758	0.874	0.64	1.12	1.18	1.33	1.15
E fixed	1.42	0.424	0.846	0.904	0.956	0.542	1.27	1.79	1.39	1.17
F fixed	0.732	1.11	1.43	1.22	1.45	2.44	0.78	1.19	1.12	1.07
G fixed	1.13	0.736	1.32	1.11	1.02	0.288	1.28	0.942	1.12	1.07
H fixed	0.786	0.574	1.3	1.05	0.954	1.52	1.18	1.04	1.04	0.925
I fixed	1.23	1.12	0.957	0.798	1.12	3.11	0.824	0.81	0.822	0.888
K fixed	0.652	0.804	0.718	0.949	0.775	0.283	0.529	0.728	0.697	0.917
L fixed	0.869	1.47	0.689	0.813	1.06	1.62	0.881	0.879	0.919	0.99
M fixed	1.02	1.51	0.755	1.09	1.08	0.805	0.702	0.867	0.843	0.948
N fixed	0.91	1.04	0.812	0.784	0.878	0.587	1.17	1.25	1.22	1.11
P fixed	0.223	1.1	0.995	1.35	1.36	0.774	0.976	0.869	1.11	1.1
Q fixed	1.32	0.607	0.763	1.01	0.75	0.43	0.998	0.811	0.977	0.995
R fixed	1.07	1.12	0.985	1.17	0.853	0.261	0.631	0.86	0.821	0.997
S fixed	1.24	0.902	0.97	0.871	0.837	0.418	1.2	0.962	0.833	0.863
T fixed	1.64	0.587	0.732	0.72	0.818	0.83	0.814	0.84	0.637	0.778
V fixed	1.48	0.616	0.863	0.884	0.898	1.43	0.855	0.705	0.742	0.632
W fixed	0.938	2.98	2.04	1.55	1.46	1.35	1.81	1.33	1.3	1.38
pThr fixed	0.711	0.441	0.759	0.797	0.891	0.57	0.79	0.848	0.878	1.08
pTyr fixed	1.06	0.75	1.06	1.28	1.08	3.6	1.01	1.21	1.15	1.14
